Results from patent US20220387578A1 (VANDERBILT UNIVERSITY, published 2022).
Numbering of substitutions follows the chain as printed. Like-named read-outs stand apart in the source and are kept apart here.

T1: eHead_H1Solomon (wild-type H1 head domain monomer) (influenza A virus, UniProt B4URD6 65-276)
T1 chain: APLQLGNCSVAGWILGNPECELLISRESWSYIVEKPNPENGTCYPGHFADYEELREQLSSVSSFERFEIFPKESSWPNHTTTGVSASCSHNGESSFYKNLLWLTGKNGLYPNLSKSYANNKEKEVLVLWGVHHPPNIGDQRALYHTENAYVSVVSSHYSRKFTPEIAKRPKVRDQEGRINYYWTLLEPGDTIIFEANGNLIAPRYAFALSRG

B1: rFluA-20 Fab (Fab, V domains shown)
VH: QVQLQESGPGLVKPSETLSLTCSVSGVSVTSDIYYWTWIRQPPGKGLEWIGYIFYNGDTNYNPSLKSRVTMSIDTSKNEFSLRLTSVTAADTAVYFCARGTEDLGYCSSGSCPNHWGQGTLVTVSS
VL: DIQMTQSPSSLSASIGDRVTITCRPSQNIRSFLNWFQHKPGKAPKLLIYAASNLQSGVPSRFSGSGSGTEFTLTIRSLQPEDFATYYCQQSYNTPPTFGQGTKVEIK
B2: FluA-20-UCA IgG (unmutated common ancestor of FluA-20) (antibody, V domains shown)
VH: QVQLQESGPGLVKPSETLSLTCTVSGGSVSSGSYYWSWIRQPPGKGLEWIGYIYYSGSTNYNPSLKSRVTISVDTSKNQFSLKLSSVTAADTAVYYCARGTEDLGYCSGGSCPNHWGQGTLVTVSS
VL: not shown
B3: FluA20_UCA (as used in the SPR experiments of Example 4) (antibody, V domains shown)
VH: B2 VH
VL: not shown
B4: FluA-20 UCA Fab (Fab, V domains shown)
VH: B2 VH
VL: not shown
B5: mAb H5.31 (hybridoma IgG) (antibody, V domains shown)
VH: EVQLVQSGGGLVQPGGSLRLSCEASRFTSSSYWITWVRQAPGKGLEWVANIKQDGSEKYFVDSVKGRFTISRDNASNSLYLQMSSLRAEDTAVYYCARGFLERLLLGRQGAYYYGMDVWGQGTTVTVSS
VL: DIQMTQSPSSLSASVGDRVTMTCRASQSISSSLNWYQQKPGKAPKLLIYAASNLQSGVPSRFSGSGSGTDFTLTISSLQPEDFATYYCQQSYTMPPELTFGGGTKVQIK
B6: mAb H5.28 (hybridoma IgG) (antibody, V domains shown)
VH: EVQLVESGGGLVQPGGSLRLSCAASGFTFSTYWMTWVRQAPGKGLEWVANINQDGGEKYFVDSVKGRFTISRDNAKNSLFLQMNTLRAEDTAVYYCARGFLERLLLGRQGAYYYGMDVWGQGTTVTVSS
VL: B5 VL with T20S, S28I, T93S, M94T, Q107E

Columns and labels:
[1] = biological target: H1 HA A/South Carolina/1/1918 (H1N1) (influenza A virus, UniProt Q9WFX3 18-529); assay: BLI, biotinylated HA on streptavidin sensor
[2] = biological target: T2, H3 HA A/Hong Kong/1/1968 (H3N2), recombinant soluble trimer (influenza A virus, UniProt Q91MA7 17-530); assay: ELISA on coated recombinant HA
[3] = biological target: T1, eHead_H1Solomon (wild-type H1 head …); assay: SPR
[4] = biological target: T3, eHead-H3HK68_v1 (wild-type H3 head domain monomer) (influenza A virus, UniProt Q91MA7 53-335); assay: SPR
[5] = biological target: T1, eHead_H1Solomon (wild-type H1 head …); assay: SPR (Example 4, Table E)
[6] = biological target: T3, eHead-H3HK68_v1 (wild-type H3 head …); assay: SPR (Example 4, Table E)
[7] = biological target: T2, H3 HA A/Hong Kong/1/1968 (H3N2), …; assay: BLI, biotinylated HA on streptavidin sensor
[8] = biological target: A/Duck/Czechoslovakia/1956 (Influenza A virus); assay: ELISA on coated recombinant HA
[9] = biological target: A/Puerto Rico/8/1934 (Influenza A virus); assay: ELISA on coated recombinant HA
[10] = biological target: A/Turkey/Ontario/6118/1967 (Influenza A virus); assay: ELISA on coated recombinant HA
[11] = biological target: H5 HA A/Vietnam/1203/2004 (H5N1), recombinant (influenza A virus); assay: ELISA on coated recombinant HA
[12] = biological target: H5 HA A/Indonesia/05/2005 (H5N1), recombinant (influenza A virus); assay: ELISA on coated recombinant HA
[13] = biological target: H7 HA A/New York/107/2003, recombinant (influenza A virus); assay: ELISA on coated recombinant HA
[14] = biological target: T4, H1 HA A/Texas/36/1991 (H1N1), recombinant soluble trimer (influenza A virus); assay: ELISA on coated recombinant HA
T4 construct: extracellular domain

[15] = biological target: H2 HA A/Singapore/1/1957, recombinant soluble trimer (influenza A virus); assay: ELISA on coated recombinant HA
[16] = biological target: T2, H3 HA A/Hong Kong/1/1968 (H3N2), …; assay: ELISA on coated recombinant HA; remark: listed apart in the source
[17] = biological target: T5, H3 HA A/Texas/50/2012, recombinant soluble trimer (influenza A virus); assay: ELISA on coated recombinant HA
T5 construct: extracellular domain

[18] = biological target: H12 HA A/duck/Alberta/60/1976, recombinant (influenza A virus); assay: ELISA on coated recombinant HA

| Binder | Kd [1] [nM] | EC50 [8] [µg/mL] | EC50 [9] [µg/mL] | EC50 [10] [µg/mL] | EC50 [11] [µg/mL] | EC50 [12] [µg/mL] | EC50 [13] [µg/mL] | EC50 [14] [µg/mL] | EC50 [15] [µg/mL] | EC50 [16] [µg/mL] | EC50 [17] [µg/mL] | EC50 [18] [µg/mL] | other results |
| --- | --- | --- | --- | --- | --- | --- | --- | --- | --- | --- | --- | --- | --- |
| B1 | 46 |  |  |  |  |  |  |  |  |  |  |  |  |
| B2 |  |  |  |  |  |  |  |  |  |  |  |  | EC50 [2]: 0.021 µg/mL |
| B3 |  |  |  |  |  |  |  |  |  |  |  |  | Kd [3]: 500 nM; Kd [4]: 530 nM; Kd [5]: ~500 nM; Kd [6]: ~500 nM |
| B4 | 937 |  |  |  |  |  |  |  |  |  |  |  | Kd [7]: 486 nM |
| B5 |  | 0.006 | 0.004 | 0.004 | 0.006 | > 2.5 | > 2.5 | 0.006 | 0.004 | 0.009 | 0.936 | 0.002 |  |
| B6 |  | 0.021 | 0.01 | > 2.5 | 0.182 | > 2.5 | > 2.5 | 0.022 | 0.014 | > 2.5 | > 2.5 | 0.269 |  |
